From patent publication US20240352140A1 (Janssen / Centocor, published 2024)

Legend:
[1] = biological target: T1, cynomolgus monkey BCMA (as used in SPR) (cynomolgus monkey); assay: SPR; column printed 'Binding Affinity to BCMA (nM)', Cyno
T1 construct: also called cyno BCMA

recombinant soluble BCMA = biological target: T2, recombinant soluble BCMA (Homo sapiens (Human), UniProt Q02223 1-54); assay: cell-based or functional assay
T2 sequence: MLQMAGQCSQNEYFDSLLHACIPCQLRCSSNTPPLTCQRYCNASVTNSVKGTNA

B1: teclistamab (bispecific antibody, human IgG4 S228P, lambda, F234A L235A)
heavy 1: not shown
light 1: SYVLTQPPSVSVAPGQTARITCGGNNIGSKSVHWYQQPPGQAPVVVVYDDSDRPSGIPERFSGSNSGNTATLTISRVEAGDEAVYYCQVWDSSSDHVVFGGGTKLTVLGQPKAAPSVTLFPPSSEELQANKATLVCLISDFYPGAVTVAWKGDSSPVKAGVETTTPSKQSNNKYAASSYLSLTPEQWKSHRSYSCQVTHEGSTVEKTVAPTECS
heavy 2: EVQLVESGGGLVQPGGSLRLSCAASGFTFNTYAMNWVRQAPGKGLEWVARIRSKYNNYATYYAASVKGRFTISRDDSKNSLYLQMNSLKTEDTAVYYCARHGNFGNSYVSWFAYWGQGTLVTVSSASTKGPSVFPLAPCSRSTSESTAALGCLVKDYFPEPVTVSWNSGALTSGVHTFPAVLQSSGLYSLSSVVTVPSSSLGTKTYTCNVDHKPSNTKVDKRVESKYGPPCPPCPAPEAAGGPSVFLFPPKPKDTLMISRTPEVTCVVVDVSQEDPEVQFNWYVDGVEVHNAKTKPREEQFNSTYRVVSVLTVLHQDWLNGKEYKCKVSNKGLPSSIEKTISKAKGQPREPQVYTLPPSQEEMTKNQVSLTCLVKGFYPSDIAVEWESNGQPENNYKTTPPVLDSDGSFLLYSKLTVDKSRWQEGNVFSCSVMHEALHNHYTQKSLSLSLGK
light 2: QTVVTQEPSLTVSPGGTVTLTCRSSTGAVTTSNYANWVQQKPGQAPRGLIGGTNKRAPGTPARFSGSLLGGKAALTLSGVQPEDEAEYYCALWYSNLWVFGGGTKLTVLGQPKAAPSVTLFPPSSEELQANKATLVCLISDFYPGAVTVAWKADSSPVKAGVETTTPSKQSNNKYAASSYLSLTPEQWKSHRSYSCQVTHEGSTVEKTVAPTECS
notes: Humanized IgG4 proline, alanine, alanine (PAA)-based bispecific antibody with one BCMA arm (BCMB69) and one CD3 arm (CD3B219); also called JNJ-64007957; JNJ-957
**Q.** What does the source list for B1?
**A.** Kd [1]: 5.36 to 7.27 nM; cytotoxicity assay with spiked recombinant sBCMA (167 nM), reduction in potency (recombinant soluble BCMA): 2 fold
